B1: PLAGL1 (parent)
chain: DPNKMAFGCEECGKKYNTMLGYKR

Variants of: B1
Assay: protein stability index of a GFP-peptide fusion (GPS, HEK-293T) (PSI 1-6); higher = more stable
Details: c terminus: a fixed tail appended
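Further: lentivirally expressed fusions sorted by FACS into six bins by GFP to DsRed ratio, PSI derived from sequencing read proportions per bin multiplied by bin number.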

Point of comparison: M19Y, protein stability index 2.49. Against it:
- L20F — lower, 2.18
- L20D — higher, 2.82
- L20G — lower, 2.46
- L20E — higher, 3.51
- L20H — higher, 3.08
- L20P — higher, 3.11
- L20Q — lower, 2.33
- L20C — higher, 2.59
- L20K — higher, 3.26
- L20A — lower, 2.23
- L20R — higher, 3.46
- L20I — higher, 2.54
- L20N — lower, 2.26
- L20M — higher, 2.72
- C12M — higher, 3.93
- C12Q — higher, 4.24
- C12Y — higher, 3.92
- C12H — higher, 2.98
- C12T — higher, 3.78
- C12K — higher, 4.4
- C12P — higher, 4.01
- C12F — higher, 3.44
- C12E — higher, 4.78
- C12S — higher, 3.52
- C12G — higher, 4.29
- C12W — higher, 2.93
- C12R — higher, 4.61
- C12D — higher, 4.49
- C12I — higher, 2.6
- C12V — higher, 4.43
- C12L — higher, 3.3
- C12N — higher, 4.1
- C12A — higher, 4.36
- Y16N — higher, 3.04
- Y16A — higher, 2.82
- Y16F — higher, 2.68
- Y16W — higher, 2.72
- Y16H — higher, 2.73
- Y16D — higher, 2.88
- Y16I — lower, 2.13
- Y16C — higher, 2.58
- Y16M — higher, 2.71
- Y16L — higher, 3.25
- Y16R — higher, 3.4
- Y16E — higher, 3.2
- Y16V — higher, 2.73
- Y16Q — lower, 2.44
- Y16P — higher, 3.07
- Y16K — higher, 3.16
- Y16G — lower, 2.17
- Y16S — higher, 2.62
- Y16T — higher, 3.51
- P2T — lower, 2.03
- P2V — lower, 2
- P2Y — higher, 2.51
- P2Q — lower, 1.92
- P2S — higher, 2.7
- P2W — lower, 1.82
- P2R — higher, 3.98
- N17M — lower, 1.75
- N17C — lower, 2.2
- N17V — lower, 1.78
- N17H — higher, 2.91
- N17K — higher, 3.06
- N17A — higher, 2.82
- N17S — lower, 1.66
- N17T — lower, 1.99
- N17G — lower, 1.52
- N17P — lower, 2.35
- N17E — lower, 2.31
- N17L — lower, 1.91
- N17W — lower, 1.76
- N17F — higher, 3.25
- N17D — lower, 2.33
- N17Q — higher, 2.73
- N17R — lower, 2.02
- N17I — lower, 2.44
- M5V — lower, 1.93
- M5C — higher, 3.04
- M5R — lower, 2.36
- M5T — higher, 2.88
- M5A — higher, 2.63
- M5F — lower, 2.15
- M5K — lower, 2.26
- M5W — lower, 2.35
- M5N — lower, 2.48
- M5H — higher, 2.73
- M5D — higher, 3.54
- M5S — higher, 2.81
- M5P — lower, 2.2
- M5L — higher, 2.67
- M5E — higher, 3.31
- M5I — lower, 2.38
- M5G — higher, 2.81
- M5Y — lower, 2.33
- M5Q — lower, 2.26
- K15V — lower, 2.27
- K15I — lower, 1.58
- K15N — higher, 2.99
- K15Q — higher, 3.14
- K15W — lower, 2.27
- K15M — lower, 1.73
- K15G — lower, 2.3
- K15H — lower, 1.98
- K15P — higher, 2.81
- K15S — lower, 1.96
- K15T — higher, 2.58
- K15C — higher, 2.63
- K15Y — lower, 1.71
- K15A — higher, 2.73
- K15F — lower, 1.81
- K15R — lower, 1.52
- K15L — lower, 2.19
- K15D — higher, 3.12
- K15E — higher, 3.03
- F7D — higher, 2.59
- F7R — lower, 1.92
- F7M — higher, 2.58
- F7V — lower, 2.43
- F7K — lower, 2.31
- F7Y — higher, 2.53
- F7P — higher, 2.57
- F7I — higher, 2.98
- F7H — lower, 2.19
- F7Q — higher, 3.45
- F7G — higher, 3.17
- F7T — lower, 2.3
- F7A — higher, 3.27
- F7E — higher, 3.21
- F7S — higher, 3.43
- F7C — lower, 2.22
- F7W — lower, 1.74
- F7N — lower, 2.45
- K4L — higher, 2.85
- K4P — higher, 3.01
- K4R — lower, 1.64
- K4F — lower, 1.61
- K4H — lower, 2.35
- K4V — lower, 1.98
- K4I — lower, 1.95
- K4T — higher, 2.61
- K4S — lower, 2.48
- K4A — lower, 2.35
- K4Y — higher, 2.59
- K4W — lower, 2.08
- K4C — lower, 2.45
- K4G — higher, 2.72
- K4E — higher, 3.3
- K4M — higher, 2.6
- K4Q — higher, 2.61
- K4N — higher, 2.55
- K4D — higher, 2.53
- N3S — higher, 2.87
- N3Y — lower, 2.14
- N3G — higher, 2.8
- N3A — lower, 2.21
- N3T — higher, 2.79
- N3Q — higher, 3.51
- N3P — lower, 2.26
- N3K — higher, 3.1
- N3E — higher, 2.52
- N3I — lower, 2.19
- N3F — lower, 2.15
- N3V — higher, 2.69
- N3L — higher, 3.54
- N3M — higher, 2.82
- N3C — lower, 2.23
- N3R — lower, 2.25
- N3H — higher, 2.61
- N3W — lower, 2.23
- T18H — higher, 2.81
- T18V — lower, 1.42
- T18L — lower, 1.85
- T18Q — higher, 3.04
- T18A — higher, 3.2
- T18K — higher, 3.01
- T18G — higher, 3.07
- T18E — higher, 2.77
- T18P — higher, 2.78
- T18F — lower, 2.15
- T18R — higher, 2.6
- T18D — lower, 2.42
- T18M — lower, 2.18
- T18S — lower, 2.39
- T18Y — lower, 1.87
- T18C — lower, 2.35
- T18N — lower, 2.3
- T18I — higher, 2.63
- G8Q — lower, 1.98
- G8H — higher, 2.5
- G8I — higher, 2.76
- G8F — lower, 1.68
- G8L — higher, 2.82
- G8E — higher, 2.74
- G8P — lower, 2.31
- G8M — lower, 1.96
- G8T — higher, 3.12
- G8Y — lower, 2.21
- G8N — higher, 2.74
- G8K — lower, 2.14
- G8C — lower, 2.19
- G8V — higher, 2.92
- G8D — higher, 2.73
- G8W — lower, 2.03
- G8S — lower, 2.19
- M19T — higher, 2.74
- M19C — higher, 2.57
- M19N — lower, 2.37
- M19S — higher, 2.83
- M19H — lower, 1.32
- M19I — lower, 2.25
- M19R — higher, 2.99
- M19P — lower, 2.27
- M19L — higher, 2.82
- M19K — higher, 3.55
- M19A — higher, 3.16
- M19V — lower, 2.14
- M19F — lower, 1.9
- M19Q — higher, 2.94
- M19W — lower, 2.11
- M19E — lower, 2.32
- M19G — higher, 2.64
- E11A — higher, 2.96
- E11R — lower, 1.53
- E11H — lower, 2.28
- E11T — lower, 1.9
- E11I — lower, 2.45
- E11N — higher, 2.52
- E11K — the same, 2.49
- E11Q — lower, 1.99
- E11G — lower, 1.77
- E11L — higher, 3.19
- E11S — higher, 2.5
- E11D — higher, 2.65
- E11P — higher, 2.83
- E11W — lower, 1.37
- E11M — higher, 2.68
- E11Y — lower, 1.92
- E11C — lower, 1.44
- E11V — higher, 2.79
- E11F — lower, 1.85
- C9I — higher, 3.32
- C9K — higher, 3.6
- C9W — higher, 3.01
- C9T — higher, 4.07
- C9L — higher, 3.9
- C9E — higher, 3.52
- C9A — higher, 3.38
- C9D — higher, 3.78
- C9R — higher, 4.08
- C9Q — higher, 4.16
- C9G — higher, 3.67
- C9M — higher, 3.16
- C9N — higher, 4.01
- C9V — higher, 4.21
- C9S — higher, 4.08
- C9F — higher, 3.32
- C9P — higher, 3.43
- C9Y — higher, 3.61
- K14H — lower, 1.99
- K14D — higher, 2.98
- K14W — higher, 3.05
- K14S — lower, 2.39
- K14M — higher, 2.56
- K14F — lower, 2.23
- K14P — higher, 2.88
- K14R — lower, 1.99
- K14L — lower, 1.54
- K14T — higher, 3.14
- K14V — lower, 2.37
- K14N — higher, 3.06
- K14A — higher, 2.93
- K14Y — lower, 1.95
- K14E — higher, 3.44
- K14G — lower, 2.29
- K14I — lower, 2.46
- K14Q — higher, 3.04
- E10S — higher, 3.23
- E10I — higher, 2.51
- E10H — lower, 2.11
- E10P — lower, 2.3
- E10C — lower, 1.74
- E10R — lower, 1.64
- E10K — higher, 2.6
- E10Q — higher, 2.54
- E10M — lower, 1.96
- E10V — lower, 2.37
- E10A — lower, 1.74
- E10Y — lower, 1.92
- E10L — lower, 1.92
- E10N — lower, 2.29
- E10W — higher, 3.11
- E10G — lower, 2.3
- E10F — lower, 2.4
- E10T — lower, 2.21
- G13Q — lower, 2.35
- G13H — lower, 2.45
- G13K — lower, 2.04
- G13N — lower, 2.12
- G13M — lower, 1.82
- G13E — higher, 2.63
- G13F — lower, 1.93
- G13I — the same, 2.49
- G13T — lower, 2.33
- G13R — higher, 2.53
- G13P — higher, 3.96
- G13W — higher, 3.27
- G13V — lower, 1.39
- G13D — higher, 2.81
- G13L — higher, 3.01
- G13A — lower, 2.33
- G13Y — lower, 2.32
- G13C — lower, 1.97
- G13S — higher, 2.98
- A6I — lower, 2.46
- A6M — higher, 2.75
- A6Q — lower, 2.36
- A6N — higher, 2.58
- A6P — higher, 2.53
- A6G — lower, 2.02
- A6Y — lower, 2.19
- A6H — higher, 2.53
- A6F — lower, 2.32
- A6W — higher, 2.9
- A6C — lower, 2.35
- A6L — higher, 3.02
- A6D — higher, 2.9
- A6V — lower, 2.04
- A6S — lower, 2.33
- A6K — higher, 2.97
- A6R — lower, 2.19
- A6T — lower, 2.29
- A6E — higher, 3.09

— the supplement of paper PMC10567573
